Assay [1] addresses T1, mouse ROR2-TwinStrep (mouse, UniProt Q9Z138 34-403).
T1 construct: also called mROR2; murine ROR2; not shown: TwinStrep tag
The assay is described as follows: ELISA, panel 'Coating: Mouse ROR2' (mouse ROR2-TwinStrep 2 µg/mL), 3-fold dilution series of antibody, HRP anti-human IgG, OD 490 nm. The protocol: (§1) Binding of antibodies to hROR2, mouse ROR2 (mROR2) and cynomolgus ROR2 (cROR2) was evaluated in an ELISA-based assay. For this, ELISA plates were coated with 50 μL of 2 μg/ml, in sodium bicarbonate coating buffer (0.1M Na₂CO₃, 0.1M NaHCO₃, pH 9.6), of: (a) an anti-human Fc (Jackson Immunoresearch, 109-006-098), (b) hROR2-TwinStrep, (c) cynomolgus ROR2-TwinStrep or (d) mouse ROR2-TwinStrep. Following 1-2-days incubation at 4° C., plates were washed with PBS supplemented with 0.05% (v/v) of Tween 20 and blocked with 150 μL of PBS supplemented with 0.05% (v/v) of Tween 20 and 3% of bovine serum albumin (BSA). Thereafter, 3-fold or 4-fold dilutions of purified antibodies starting at 0.5 or 2 μg/ml, respectively, in PBS supplemented with 1% (w/v) bovine serum albumin (BSA) and 0.05% (v/v) of Tween 20 were added. Following 1 h incubation at 37° C., plates were washed with PBS supplemented with 0.05% (v/v) of Tween 20 prior to addition of HRP-conjugated anti-human IgG (Jackson Immunoresearch, 109-036-008). Following further plate washing, plates were developed with 50 μL of Sigmafast OPD Tablet set (Sigma, P9187) and the reaction stopped by addition of 2M sulfuric acid. Plates were read on an ELISA plate reader (OD 490).
(An ELISA detects its analyte on a solid surface through an enzyme-linked reagent.)

For assay [2], the target named is T1, mouse ROR2-TwinStrep. Nature of the assay: ELISA, panel 'mouse ROR2' (mouse ROR2-TwinStrep 2 µg/mL coated), 4-fold dilutions of purified antibody from 2000 ng/mL, HRP anti-human IgG, OD 490 nm. How it is done: as §1

This is an account of results in US20200354449A1 (NBE THERAPEUTICS, published 2020).

Numbering of substitutions follows the chain as printed.

T1 sequence (Q9Z138 34-403 V372M): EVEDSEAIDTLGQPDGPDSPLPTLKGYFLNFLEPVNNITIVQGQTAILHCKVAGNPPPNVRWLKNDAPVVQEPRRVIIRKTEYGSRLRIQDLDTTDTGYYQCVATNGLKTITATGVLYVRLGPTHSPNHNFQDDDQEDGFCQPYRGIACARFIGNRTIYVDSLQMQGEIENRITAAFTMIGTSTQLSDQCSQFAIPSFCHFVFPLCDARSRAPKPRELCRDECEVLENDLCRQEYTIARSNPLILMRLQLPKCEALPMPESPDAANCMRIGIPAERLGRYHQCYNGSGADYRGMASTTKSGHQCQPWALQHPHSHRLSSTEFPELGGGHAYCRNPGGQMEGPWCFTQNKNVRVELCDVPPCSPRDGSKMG

B1: GK-6B10 (antibody, human IgG1)
heavy: not shown
light: DIVMTQSPSTLSASVGDRVTITCRASQSIDNWLAWYQQKPGKAPKVLIYKASSLESGVPSRFSGSGSGTEFTLTISSLQPDDFATYYCQQYNSYSYTFGQGTKLEIKRTVAAPSVFIFPPSDEQLKSGTASVVCLLNNFYPREAKVQWKVDNALQSGNSQESVTEQDSKDSTYSLSSTLTLSKADYEKHKVYACEVTHQGLSSPVTKSFNRGECGGGGGSLPETG
notes: Human IgG1/kappa; the molecule is assigned by the clone name; not shown: Strep tag
For the molecule B1, in the assay with mouse ROR2-TwinStrep [1], the binding result is “no binding”.

B2: MK-7C3 (antibody, human IgG1)
heavy: not shown
light: B1 light with D1A, V3R, S28T, D30S, Y36F, T85S, K103R
notes: as for B1
On to B2, for which, in the assay with mouse ROR2-TwinStrep [1], the binding result was “no binding”.

B3: GK-5A1 (mAb271) (antibody, human IgG1)
heavy: not shown
light: EIVLTQSPSTLSASVGDRVTITCRASQSISSWLAWYQQKPGKAPKLLIYKASSLESGVPSRFSGSGSGTEFTLTISSLQPDDFATYYCQQYNSYWTFGQGTKVDIKRTVAAPSVFIFPPSDEQLKSGTASVVCLLNNFYPREAKVQWKVDNALQSGNSQESVTEQDSKDSTYSLSSTLTLSKADYEKHKVYACEVTHQGLSSPVTKSFNRGECGGGGGSLPETG
notes: Human IgG1/kappa; not shown: Strep tag
For B3, in the assay with mouse ROR2-TwinStrep [1], the binding result is listed as “binds”.

B4: MK-3B12 (mAb272) (antibody, human IgG1)
heavy: not shown
light: B3 light with E1D, L4M, S93N, D104E
notes: as for B3
On to B4, for which the binding result with mouse ROR2-TwinStrep [1] is “no binding”.

B5: GK-1E5 (mAb270) (antibody, human IgG1)
heavy: not shown
light: B3 light with E1D, V3Q, S93N, D104E
notes: as for B3
In the case of B5, in the assay with mouse ROR2-TwinStrep [1], the binding result is recorded as “no binding”.

B6: GK-2G8 (antibody, human IgG1)
heavy: not shown
light: B3 light with L4M, S93N
notes: as for B1
Consider B6, for which, in the assay with mouse ROR2-TwinStrep [1], the binding result was “no binding”.

B7: GK-5G12 (antibody, human IgG1)
heavy: not shown
light: EIVLTQSPSSLSASVGDRVTITCRASQGISNYLAWYQQKPGKVPKLLIYAASTLQSGVPSRFSGSGSGTDFTLTISSLQPEDVATYYCQKYNSAPYTFGQGTKLEIKRTVAAPSVFIFPPSDEQLKSGTASVVCLLNNFYPREAKVQWKVDNALQSGNSQESVTEQDSKDSTYSLSSTLTLSKADYEKHKVYACEVTHQGLSSPVTKSFNRGECGGGGGSLPETG
notes: as for B1
Turning to B7, the binding result with mouse ROR2-TwinStrep [1] is on record as “no binding”.

B8: GK-21D3 (mAb399; mAb417) (antibody, human IgG1)
heavy: not shown
light: B7 light with E1D, V3Q, V15I, A84S, Y96W, L104V, E105D
notes: also called GK-21D3 (mAb417); MK-21D3; not shown: TwinStrep tag
Consider B8, for which the binding result with mouse ROR2-TwinStrep [2] is recorded as “no binding (tested: 2000 ng/mL)”.

B9: GK-22G12 (mAb418) (antibody, human IgG1)
heavy: not shown
light: DIVMTQSPSSLSASVGDRVTITCRASQGISNYLAWYQQKPGKVPKLLIYAASTLQSGVPSRFSGSGSGTDFTLTISSLQPEDVSTYYCQKHNRAPWTFGQGTKLEIKRTVAAPSVFIFPPSDEQLKSGTASVVCLLNNFYPREAKVQWKVDNALQSGNSQESVTEQDSKDSTYSLSSTLTLSKADYEKHKVYACEVTHQGLSSPVTKSFNRGECGGGGGLPETG
notes: Human IgG1/kappa; The light chain tag is printed G5LPETG, perhaps a misprint of G5SLPETG; also called MK-22G12; not shown: TwinStrep tag
Regarding B9, the binding result with mouse ROR2-TwinStrep [2] is given as “no binding (tested: 2000 ng/mL)”.
